Consider two compounds from publication PMC4815018, “Oligomerization as a strategy for cold adaptation: Structure and dynamics of the GH1 β-glucosidase from Exiguobacterium antarcticum B7” (Scientific Reports, 2016).

In assay [1] the target is GH1 β-glucosidase from Exiguobacterium antarcticum B7 (Exiguobacterium antarcticum B7). In words: SEC; Superdex 75 16/60, 20 mM sodium phosphate, 150 mM NaCl, pH 7.5, 0.5 mL/min; two peaks (tetramers and monomers); samples at 4 mg/mL. (In general: Size exclusion chromatography separates by hydrodynamic size, large species first.)
Assay [2] has the same target.
Assay [3] has the same target. In words: crystal structure; two crystal forms, P2(1) (0.1 M TRIS pH 8.5, 2% PEG400, 1.45 M lithium sulfate) and C222(1) (0.1 M CAPS pH 10.5, 0.2 M lithium sulfate, 2 M ammonium sulfate, in situ proteolysis with trypsin); 18 °C, protein at 15 mg/mL.
Assay [4] shares this target. Description: SAXS; 1 and 2 mg/mL in 20 mM sodium phosphate, 150 mM NaCl, pH 7.4, 20 °C; experimental curve and ab initio model compared with the crystallographic tetramer.
Assay [5] has the same target. In words: AUC; sedimentation velocity, 35,000 rpm, 20 °C, 0.2, 0.4 and 1 mg/mL in 20 mM sodium phosphate, 150 mM NaCl, pH 7.4.
The next assay deals with T1, EaBglA (Exiguobacterium antarcticum, UniProt A0ABF7PFW8).
T1 construct: gene bglA
Description: colorimetric release of 4-nitrophenol at […] nm. It counts as biochemical. To be noted: 0.5 mM pNPG, 20 nM enzyme, 40 mM sodium phosphate pH 7.0, 30 °C, 10 min; tetramer.

T1 sequence (A0ABF7PFW8 entry or part of it): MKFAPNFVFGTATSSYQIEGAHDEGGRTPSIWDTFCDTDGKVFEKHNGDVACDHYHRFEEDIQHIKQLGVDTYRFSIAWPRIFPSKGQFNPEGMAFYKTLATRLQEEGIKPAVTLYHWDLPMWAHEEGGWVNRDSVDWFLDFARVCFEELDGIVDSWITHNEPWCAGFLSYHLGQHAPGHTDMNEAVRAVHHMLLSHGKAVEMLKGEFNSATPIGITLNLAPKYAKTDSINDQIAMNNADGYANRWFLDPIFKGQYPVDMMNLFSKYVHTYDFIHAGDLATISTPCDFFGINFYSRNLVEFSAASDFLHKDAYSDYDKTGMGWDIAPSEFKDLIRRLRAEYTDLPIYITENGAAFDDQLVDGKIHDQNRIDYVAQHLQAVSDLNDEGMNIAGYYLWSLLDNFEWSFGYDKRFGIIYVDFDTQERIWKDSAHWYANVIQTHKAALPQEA

In general, stoichiometry N refers to a count of units in the complex or per binding partner. Take “GH1 β-glucosidase from Exiguobacterium antarcticum B7 (enzyme)”: the stoichiometry N in assay [1], in assay [3], in assay [4] and in assay [5] was 4 each time. The relative enzyme activity on pNPG (30 °C, pH 7.0, 20 nM enzyme) of the monomer fraction against the tetramer fraction in assay [2] worked out at 10 fold.

`O=[N+]([O-])c1ccc(O[C@@H]2O[C@H](CO)[C@@H](O)[C@H](O)[C@H]2O)cc1` [4-nitrophenyl β-D-glucopyranoside]: the “relative activity (%)” value on EaBglA is listed as “Enzyme activity was measured using the colorimetric substrate 4-nitrophenyl β-D-glucopyranoside (pNPG”.
